The test system of data set [1] is HeLa Kyoto. As to the kind of experiment: solubility in G1/S (NP-40 vs SDS abundance) (log2 ratio); higher = more soluble. Conditions: cell cycle stage: G1/S.
For data set [2], the system named is HeLa Kyoto. In words: melting temperature (median over replicates), in situ; higher = more thermally stable.
Data set [3] concerns HeLa Kyoto. In words: solubility change mitosis vs G1/S (difference of NP-40 vs SDS log2 ratios) (log2 ratio difference); higher = more soluble in mitosis.
Data set [4] relates to HeLa Kyoto. As to the kind of experiment: thermal stability score vs G1/S (z-score of summed log2 fold changes over temperatures); higher = more thermally stable than in G1/S.
[5] abbreviates: cell cycle stage: early G1 (4.5 h after nocodazole release).

From the supplement of paper PMC5998384 come the findings set out here.
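Throughout, for melting temperature (median over replicates), in situ: HeLa Kyoto cells synchronized by double thymidine or nocodazole block, proteins quantified by TMT10plex mass spectrometry, three independent biological replicates.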
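Throughout, for solubility change mitosis vs G1/S (difference of NP-40 vs SDS log2 ratios): synchronized HeLa Kyoto cells (double thymidine block for G1/S, nocodazole release for mitosis), protein amounts in NP-40 versus SDS lysates quantified by mass spectrometry, three biological replicates.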
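Throughout, for solubility in G1/S (NP-40 vs SDS abundance): HeLa Kyoto cells arrested at G1/S by double thymidine block, proteins quantified by TMT10plex mass spectrometry in mild NP-40 versus SDS extracts, three biological replicates.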
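Throughout, for thermal stability score vs G1/S (z-score of summed log2 fold changes over temperatures): synchronized HeLa Kyoto cells, proteins quantified by TMT10plex mass spectrometry, three biological replicates, mitosis taken 0.5 h after nocodazole release, G1/S directly after double thymidine block.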

As to “MMPMFLTVYLSNNEQHFTEVPVTPETICRDVVDLCKEPGESDCHLAEVWCGSERPVADNERMFDVLQRFGSQRNEVRFFLRHERPPGRDIVSGPRSQDPSLKRNGVKVPGEYRRKENGVNSPRMDLTLAELQEMASRQQQQIEAQQQLLATKEQRLKFLKQQDQRQQQQVAEQEKLKRLKEIAENQEAKLKKVRALKGHVEQKRLSNGKLVEEIEQMNNLFQQKQRELVLAVSKVEELTRQLEMLKNGRIDSHHDNQSAVAELDRLYKELQLRNKLNQEQNAKLQQQRECLNKRNSEVAVMDKRVNELRDRLWKKKAALQQKENLPVSSDGNLPQQAASAPSRVAAVGPYIQSSTMPRMPSRPELLVKPALPDGSLVIQASEGPMKIQTLPNMRSGAASQTKGSKIHPVGPDWSPSNADLFPSQGSASVPQSTGNALDQVDDGEVPLREKEKKVRPFSMFDAVDQSNAPPSFGTLRKNQSSEDILRDAQVANKNVAKVPPPVPTKPKQINLPYFGQTNQPPSDIKPDGSSQQLSTVVPSMGTKPKPAGQQPRVLLSPSIPSVGQDQTLSPGSKQESPPAAAVRPFTPQPSKDTLLPPFRKPQTVAASSIYSMYTQQQAPGKNFQQAVQSALTKTHTRGPHFSSVYGKPVIAAAQNQQQHPENIYSNSQGKPGSPEPETEPVSSVQENHENERIPRPLSPTKLLPFLSNPYRNQSDADLEALRKKLSNAPRPLKKRSSITEPEGPNGPNIQKLLYQRTTIAAMETISVPSYPSKSASVTASSESPVEIQNPYLHVEPEKEVVSLVPESLSPEDVGNASTENSDMPAPSPGLDYEPEGVPDNSPNLQNNPEEPNPEAPHVLDVYLEEYPPYPPPPYPSGEPEGPGEDSVSMRPPEITGQVSLPPGKRTNLRKTGSERIAHGMRVKFNPLALLLDSSLEGEFDLVQRIIYEVDDPSLPNDEGITALHNAVCAGHTEIVKFLVQFGVNVNAADSDGWTPLHCAASCNNVQVCKFLVESGAAVFAMTYSDMQTAADKCEEMEEGYTQCSQFLYGVQEKMGIMNKGVIYALWDYEPQNDDELPMKEGDCMTIIHREDEDEIEWWWARLNDKEGYVPRNLLGLYPRIKPRQRSLA [TP53BP2]”, in the data set on HeLa Kyoto [1], the “solubility in G1/S (log2)” value is 0.0669. Further, the melting temperature with HeLa Kyoto [2] (cell cycle stage: G1/S) stood at 48.9 °C; with HeLa Kyoto [2] (cell cycle stage: mitosis) it was 48.5 °C. Also, the “solubility change mitosis (log2)” value in the data set on HeLa Kyoto [3] is -0.063. In addition, the thermal stability score with HeLa Kyoto [4] (setting [5]) was determined as 0.713; with HeLa Kyoto [4] (cell cycle stage: mitosis), 1.28.

For “MMPTPVILLKEGTDSSQGIPQLVSNISACQVIAEAVRTTLGPRGMDKLIVDGRGKATISNDGATILKLLDVVHPAAKTLVDIAKSQDAEVGDGTTSVTLLAAEFLKQVKPYVEEGLHPQIIIRAFRTATQLAVNKIKEIAVTVKKADKVEQRKLLEKCAMTALSSKLISQQKAFFAKMVVDAVMMLDDLLQLKMIGIKKVQGGALEDSQLVAGVAFKKTFSYAGFEMQPKKYHNPKIALLNVELELKAEKDNAEIRVHTVEDYQAIVDAEWNILYDKLEKIHHSGAKVVLSKLPIGDVATQYFADRDMFCAGRVPEEDLKRTMMACGGSIQTSVNALSADVLGRCQVFEETQIGGERYNFFTGCPKAKTCTFILRGGAEQFMEETERSLHDAIMIVRRAIKNDSVVAGGGAIEMELSKYLRDYSRTIPGKQQLLIGAYAKALEIIPRQLCDNAGFDATNILNKLRARHAQGGTWYGVDINNEDIADNFEAFVWEPAMVRINALTAASEAACLIVSVDETIKNPRSTVDAPTAAGRGRGRGRPH [CCT7]”, the “solubility in G1/S (log2)” value with HeLa Kyoto [1] worked out at 0.162. Besides, the melting temperature with HeLa Kyoto [2] (cell cycle stage: G1/S) worked out at 54.1 °C; with HeLa Kyoto [2] (cell cycle stage: mitosis), 54.2 °C. The “solubility change mitosis (log2)” value in the data set with HeLa Kyoto [3] is -0.0678. For the same sequence, the thermal stability score in the data set with HeLa Kyoto [4] (setting [5]) is -0.684; with HeLa Kyoto [4] (cell cycle stage: mitosis), -1.22.

In the case of “MNAEPERKFGVVVVGVGRAGSVRMRDLRNPHPSSAFLNLIGFVSRRELGSIDGVQQISLEDALSSQEVEVAYICSESSSHEDYIRQFLNAGKHVLVEYPMTLSLAAAQELWELAEQKGKVLHEEHVELLMEEFAFLKKEVVGKDLLKGSLLFTAGPLEEERFGFPAFSGISRLTWLVSLFGELSLVSATLEERKEDQYMKMTVCLETEKKSPLSWIEEKGPGLKRNRYLSFHFKSGSLENVPNVGVNKNIFLKDQNIFVQKLLGQFSEKELAAEKKRILHCLGLAEEIQKYCCSRK [BLVRA]”, the “solubility in G1/S (log2)” value with HeLa Kyoto [1] was 0.108. The melting temperature with HeLa Kyoto [2] (cell cycle stage: G1/S) amounted to 54.9 °C; in the data set on HeLa Kyoto [2] (cell cycle stage: mitosis), 55 °C. Further, the “solubility change mitosis (log2)” value with HeLa Kyoto [3] is -0.0957. Moreover, the thermal stability score in the data set on HeLa Kyoto [4] (setting [5]) was -0.499; in the data set with HeLa Kyoto [4] (cell cycle stage: mitosis) it was -0.397.

In the case of “MNAGPGCEPCTKRPRWGAATTSPAASDARSFPSRQRRVLDPKDAHVQFRVPPSSPACVPGRAGQHRGSATSLVFKQKTITSWMDTKGIKTAESESLDSKENNNTRIESMMSSVQKDNFYQHNVEKLENVSQLSLDKSPTEKSTQYLNQHQTAAMCKWQNEGKHTEQLLESEPQTVTLVPEQFSNANIDRSPQNDDHSDTDSEENRDNQQFLTTVKLANAKQTTEDEQAREAKSHQKCSKSCDPGEDCASCQQDEIDVVPESPLSDVGSEDVGTGPKNDNKLTRQESCLGNSPPFEKESEPESPMDVDNSKNSCQDSEADEETSPGFDEQEDGSSSQTANKPSRFQARDADIEFRKRYSTKGGEVRLHFQFEGGESRTGMNDLNAKLPGNISSLNVECRNSKQHGKKDSKITDHFMRLPKAEDRRKEQWETKHQRTERKIPKYVPPHLSPDKKWLGTPIEEMRRMPRCGIRLPLLRPSANHTVTIRVDLLRAGEVPKPFPTHYKDLWDNKHVKMPCSEQNLYPVEDENGERTAGSRWELIQTALLNKFTRPQNLKDAILKYNVAYSKKWDFTALIDFWDKVLEEAEAQHLYQSILPDMVKIALCLPNICTQPIPLLKQKMNHSITMSQEQIASLLANAFFCTFPRRNAKMKSEYSSYPDINFNRLFEGRSSRKPEKLKTLFCYFRRVTEKKPTGLVTFTRQSLEDFPEWERCEKPLTRLHVTYEGTIEENGQGMLQVDFANRFVGGGVTSAGLVQEEIRFLINPELIISRLFTEVLDHNECLIITGTEQYSEYTGYAETYRWSRSHEDGSERDDWQRRCTEIVAIDALHFRRYLDQFVPEKMRRELNKAYCGFLRPGVSSENLSAVATGNWGCGAFGGDARLKALIQILAAAAAERDVVYFTFGDSELMRDIYSMHIFLTERKLTVGDVYKLLLRYYNEECRNCSTPGPDIKLYPFIYHAVESCAETADHSGQRTGT [PARG]”, the “solubility in G1/S (log2)” value with HeLa Kyoto [1] was -0.159. In addition, the melting temperature worked out at 50.8 °C in the data set on HeLa Kyoto [2] (cell cycle stage: G1/S) and 50 °C with HeLa Kyoto [2] (cell cycle stage: mitosis). The “solubility change mitosis (log2)” value with HeLa Kyoto [3] is -0.0937. Besides, the thermal stability score is -0.493 in the data set on HeLa Kyoto [4] (setting [5]) and -0.304 in the data set with HeLa Kyoto [4] (cell cycle stage: mitosis).
